Measurements published in PMC9962925, “PKD autoinhibition in trans regulates activation loop autophosphorylation in cis” (Proceedings of the National Academy of Sciences of the …, 2023).
Substitutions are numbered along the chain they refer to. In names and notes the source's numbering stands.

Tests used:
[1] = biological target: PKD1 kinase domain construct, unphosphorylated (PKD1^KD 0P), wild type (human) (UniProt Q15139); experiment: SEC-MALS; 60 uL of purified protein at 2 mg/mL on an S200 10/300 column, room temperature, 20 mM HEPES pH 7.4, 150 mM KCl, 1 mM EDTA, 1 mM TCEP, 1% glycerol (Fig. 1H)
[2] = biological target: PKD1 kinase domain construct, unphosphorylated (PKD1^KD 0P), wild type (human) (UniProt Q15139); experiment: SEC; analytical size exclusion chromatography of purified proteins (Fig. 1C); elution volumes calibrated to monomer and dimer masses by SEC-MALS
[3] = biological target: PKD1 ubiquitin-like dimerization domain (PKD1^ULD) (human); experiment: as above
[4] = biological target: ULD-PKD1^KD chimera with (Gly)5 linker (human)
[5] = biological target: ULD-PKD1^KD chimera with (Gly)10 linker (human)
[6] = biological target: the molecule itself; experiment: SEC; analytical size exclusion chromatography of purified proteins (Fig. 1C); elution volumes calibrated to monomer and dimer masses by SEC-MALS

“PKD1 kinase domain construct, unphosphorylated (PKD1^KD 0P), wild type (from UniProt Q15139 570-890) (domain or fragment)” gave a stoichiometry N [1] of 2 and a stoichiometry N [2] of 2.

For “PKD1 ubiquitin-like dimerization domain (PKD1^ULD) (domain or fragment)”, the stoichiometry N [3] was 2.

Molecule ULD-PKD1^KD chimera with (Gly)5 linker has an initial catalytic rate of Syntide-2 phosphorylation at 50 nM, against PKD1^KD alone [4] of 5 fold.

ULD-PKD1^KD chimera with (Gly)10 linker was tested, and the initial catalytic rate of Syntide-2 phosphorylation at 50 nM, against PKD1^KD alone [5] was 5 fold.

B1: PKD1^KD S738E (domain or fragment, human, UniProt Q15139 570-890, looked up)
chain: QIQENVDISTVYQIFPDEVLGSGQFGIVYGGKHRKTGRDVAIKIIDKLRFPTKQESQLRNEVAILQNLHHPGVVNLECMFETPERVFVVMEKLHGDMLEMILSSEKGRLPEHITKFLITQILVALRHLHFKNIVHCDLKPENVLLASADPFPQVKLCDFGFARIIGEKEFRRSVVGTPAYLAPEVLRNKGYNRSLDMWSVGVIIYVSLSGTFPFNEDEDIHDQIQNAAFMYPPNPWKEISHEAIDLINNLLQVKMRKRYSVDKTLSHPWLQDYQTWLDLRELECKIGERYITHESDDLRWEKYAGEQGLQYPTHLINPSAS
notes: Protein kinase D1 (PKD1), human, kinase domain construct, residues 570 to 890; also called single glutamate substitution of S738; source: recombinant, purified to homogeneity
B1: binds [6].

B2: PKD1^KD 2A (S738A/S742A) (domain or fragment, human, UniProt Q15139 570-890, looked up)
chain: B1 chain with E169A, S173A
notes: the sites are S738 and S742; source: recombinant, purified to homogeneity
With B2 the “stoichiometry N” value [6] was 2.

B3: PKD1^KD S742E (domain or fragment, human, UniProt Q15139 570-890, looked up)
chain: B1 chain with E169S, S173E
notes: Protein kinase D1 (PKD1), human, kinase domain construct, residues 570 to 890; also called single glutamate substitution of S742; source: recombinant, purified to homogeneity
B3: binds [6].
